Measurements reported in patent US20220380463A1 (Adimab, published 2022).
Changes are numbered by the printed parent chain.

B1: SAD10319_P02_G06 (ADI-48632) (antibody, V domains shown)
VH: QVQLVQSGAEVKKPGASVKVSCKASGYTFTSYAMHWVRQAPGQRLEWMGWINPDTGATVYSQKFQGRVTITRDTSASTAYMELSSLRSEDTAVYYCARDAYHHYFYDVWGQGTLVTVSS
VL: DIVMTQSPDSLAVSLGERATINCKSSQSLLNARTGKNYLAWYQQKPGQPPKLLIYWASTRESGVPDRFSGSGSGTDFTLTISSLQAEDVAVYYCKQSYSRRTFGGGTKVEIK
notes: IgG; also called Ab15
B2: SAD10319_P03_G07 (ADI-57325) (antibody, V domains shown)
VH: B1 VH with T30D, A33L, N52D, P53A, D54G, V59N, Y101H, H102G
VL: B1 VL
notes: IgG; also called Ab18
B3: SAD10319_P03_H07 (ADI-57326) (antibody, V domains shown)
VH: B1 VH with T30N, A33D, D54Y, A57E, V59K, A100H, H102G
VL: B1 VL
notes: IgG; also called Ab19
B4: SAD10319_P03_D08 (ADI-57327) (antibody, V domains shown)
VH: B1 VH with T30Y, A33E, E46D, D54Q, V59K
VL: B1 VL
notes: IgG; also called Ab20
B5: SAD10319_P03_E08 (ADI-48637) (antibody, V domains shown)
VH: QVQLVQSGAEVKKPGASVKVSCKASGYTFNDYAMHWVRQAPGQRLEWMGYINGTGATVYSQKFQGRVTITRDTSASTAYMELSSLRSEDTAVYYCARDAYHHYFYDVWSQGTLVTVSS
VL: B1 VL
notes: IgG; also called Ab21
B6: SAD10319_P03_G08 (ADI-48638) (antibody, V domains shown)
VH: B1 VH with T30S, A33D, N52D, P53A, D54G, A57F, V59K, H102G, V108H
VL: B1 VL
notes: IgG; also called Ab22
B7: SAD10319_P03_H08 (ADI-57328) (antibody, V domains shown)
VH: B1 VH with T30K, A33D, L45P, P53A, D54G, A57N, H103R
VL: B1 VL
notes: IgG; also called Ab23
B8: SAD10319_P03_F09 (ADI-57329) (antibody, V domains shown)
VH: B1 VH with T30P, A33P, E46D
VL: B1 VL with L29P
notes: IgG; also called Ab27
B9: SAD10319_P03_G09 (ADI-57300) (antibody, V domains shown)
VH: B1 VH with A33D, N52D, D54H, V59K, H102G, H103R, V108H
VL: B1 VL
notes: IgG; ADI-57300 is also printed for Ab234; also called Ab28
B10: SAD10319_P04_A10 (ADI-57331) (antibody, V domains shown)
VH: B1 VH with Y32D, E46A, W50Y, P53A, D54G, A57T, V59K, R98H, H102G
VL: B1 VL
notes: IgG; also called Ab29
B11: SAD10319_P04_C10 (ADI-57333) (antibody, V domains shown)
VH: B1 VH with S31D, A33S, W50S, P53A, D54G, A57I, V59K, Y101H, H102G, H103R
VL: B1 VL
notes: IgG; also called Ab31
B12: SAD10319_P04_B11 (ADI-57335) (antibody, V domains shown)
VH: B1 VH with T30G, A33D, N52D, P53A, D54G, V59K, Y101H, H102G
VL: B1 VL
notes: IgG; also called Ab33
B13: SAD10319_P04_C11 (ADI-57336) (antibody, V domains shown)
VH: B1 VH with T30H, A33E, D54S, A57S, V59K, H102G, H103R, V108H
VL: B1 VL
notes: IgG; also called Ab34
B14: SAD10319_P04_D11 (ADI-57337) (antibody, V domains shown)
VH: QVQLVQSGAEVKKPGASVKVSCKASGYTFNSYRMHWVRQAPGQRLEWMGSIDAGTGNTKYSQKFQGRVTITRDTSASTAYMELSSLRSEDTAVYYCARDAYGRYFYDHWGQGTLVTVSS
VL: B1 VL
notes: IgG; also called Ab35
B15: SAD10319_P04_E11 (ADI-57338) (antibody, V domains shown)
VH: B1 VH with S31D, A33N, D54Y, A57Y, V59K, A100H, H102G
VL: B1 VL
notes: IgG; also called Ab37
B16: SAD10319_P04_F11 (ADI-57339) (antibody, V domains shown)
VH: B1 VH with S31D, A33N, E46Q, D54Y, A57Y, V59K, A100H, H102G
VL: B1 VL
notes: IgG; also called Ab38
B17: SAD10319_P04_G11 (ADI-48641) (antibody, V domains shown)
VH: B14 VH with S21Y, N30T, S31T, R33E, D52N, T55D, G56A, G102H, R103H, H108V
VL: B1 VL
notes: IgG; also called Ab39
B18: SAD10319_P04_C12 (ADI-57341) (antibody, V domains shown)
VH: B1 VH with S31A, A33D, W47R, N52D, D54I, A57N, V59K, R98H, H102G
VL: B1 VL
notes: IgG; also called Ab41
B19: SAD10319_P04_D12 (ADI-57342) (antibody, V domains shown)
VH: B1 VH with E46D, W50Y, A57D, V59K
VL: B1 VL
notes: IgG; also called Ab42
B20: SAD10319_P04_E12 (ADI-48642) (antibody, V domains shown)
VH: B14 VH with N30T, R33P, S50W, N57L, K59T, A100H, G102H, H108M
VL: B1 VL
notes: IgG; also called Ab43
B21: SAD10319_P04_F12 (ADI-57343) (antibody, V domains shown)
VH: B14 VH with S31D, R33A, E46D, S50W, D52N, A53P, G54D, K59N, A100H
VL: B1 VL
notes: IgG; also called Ab44
B22: SAD10319_P04_H12 (ADI-57344) (antibody, V domains shown)
VH: B14 VH with N30T, Y32D, R33H, D52N, N57A, R103H
VL: B1 VL
notes: IgG; also called Ab45
B23: SAD10320_P01_F01 (ADI-57345) (antibody, V domains shown)
VH: QVQLVQSGAEVKKPGASVKVSCKASGFNIKDYYMHWVRQAPGQRPAWMGWIDLENANTIYDAKFQGRVTITRDTSASTAYMELSSLRSEDTAVYYCARDASHRYFYDVWGQGTLVTVSS
VL: B1 VL with K95G, Q96H
notes: IgG; also called Ab50
B24: SAD10320_P01_G01 (ADI-57346) (antibody, V domains shown)
VH: B23 VH with P45L, A46E, S101Y, H102G, R103H, Y104S
VL: B1 VL with S99H, R100L
notes: IgG; also called Ab51
B25: SAD10320_P01_H01 (ADI-57347) (antibody, V domains shown)
VH: B23 VH with P45L, A46D, S101Y, H102G, R103H, Y104N
VL: B1 VL with S99H, R100K
notes: IgG; also called Ab52
B26: SAD10320_P01_C02 (ADI-57348) (antibody, V domains shown)
VH: B23 VH with P45L, A46D, S101G
VL: B1 VL with T34P, K95G, Q96H
notes: IgG; also called Ab54
B27: SAD10320_P01_F02 (ADI-57350) (antibody, V domains shown)
VH: B23 VH with P45L, A46E, W47R, S101Y, H102G, R103H, Y104T
VL: B1 VL with S99W, R100H
notes: IgG; also called Ab56
B28: SAD10320_P01_G02 (ADI-57351) (antibody, V domains shown)
VH: B23 VH with P45L, A46Q, S101Y, H102G, R103H, Y104S
VL: B1 VL with S99H, R100E
notes: IgG; also called Ab57

Target: T1, Cynomolgus CD3εδ Fc heterodimer (Cy CD3ε Fc / CD3δ Fc-HIS) (cynomolgus, UniProt Q95LI8 22-100)
T1 chain 1: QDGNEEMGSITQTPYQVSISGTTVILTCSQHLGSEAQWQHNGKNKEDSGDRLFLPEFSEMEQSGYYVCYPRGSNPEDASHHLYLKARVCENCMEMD
T1 chain 2: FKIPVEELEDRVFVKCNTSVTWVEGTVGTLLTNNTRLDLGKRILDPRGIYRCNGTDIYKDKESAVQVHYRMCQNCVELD
Assay: BLI (Octet), IgG on AHC sensor, pH 6.0

koff [s⁻¹]	Binder
0.0242	B1
0.0187	B2
0.0201	B3
0.02	B4
0.0197	B5
0.0168	B6
0.00348	B7
0.0199	B8
0.0219	B9
0.0262	B10
0.00124	B11
0.00273	B12
0.00317	B13
0.00339	B14
0.0239	B15
0.00202	B16
0.00317	B17
0.0196	B18
0.012	B19
0.00307	B20
0.0162	B21
0.0047	B22
0.00642	B23
0.0144	B24
0.0207	B25
0.00277	B26
0.0194	B27
0.0197	B28
